{"source": "paper PMC4291483", "about": "(The EMBO Journal, 2014)", "target": "T1, purified STIL[N] (aa1-1018) (human, UniProt Q15468 1-1018)", "T1 sequence (looked up)": "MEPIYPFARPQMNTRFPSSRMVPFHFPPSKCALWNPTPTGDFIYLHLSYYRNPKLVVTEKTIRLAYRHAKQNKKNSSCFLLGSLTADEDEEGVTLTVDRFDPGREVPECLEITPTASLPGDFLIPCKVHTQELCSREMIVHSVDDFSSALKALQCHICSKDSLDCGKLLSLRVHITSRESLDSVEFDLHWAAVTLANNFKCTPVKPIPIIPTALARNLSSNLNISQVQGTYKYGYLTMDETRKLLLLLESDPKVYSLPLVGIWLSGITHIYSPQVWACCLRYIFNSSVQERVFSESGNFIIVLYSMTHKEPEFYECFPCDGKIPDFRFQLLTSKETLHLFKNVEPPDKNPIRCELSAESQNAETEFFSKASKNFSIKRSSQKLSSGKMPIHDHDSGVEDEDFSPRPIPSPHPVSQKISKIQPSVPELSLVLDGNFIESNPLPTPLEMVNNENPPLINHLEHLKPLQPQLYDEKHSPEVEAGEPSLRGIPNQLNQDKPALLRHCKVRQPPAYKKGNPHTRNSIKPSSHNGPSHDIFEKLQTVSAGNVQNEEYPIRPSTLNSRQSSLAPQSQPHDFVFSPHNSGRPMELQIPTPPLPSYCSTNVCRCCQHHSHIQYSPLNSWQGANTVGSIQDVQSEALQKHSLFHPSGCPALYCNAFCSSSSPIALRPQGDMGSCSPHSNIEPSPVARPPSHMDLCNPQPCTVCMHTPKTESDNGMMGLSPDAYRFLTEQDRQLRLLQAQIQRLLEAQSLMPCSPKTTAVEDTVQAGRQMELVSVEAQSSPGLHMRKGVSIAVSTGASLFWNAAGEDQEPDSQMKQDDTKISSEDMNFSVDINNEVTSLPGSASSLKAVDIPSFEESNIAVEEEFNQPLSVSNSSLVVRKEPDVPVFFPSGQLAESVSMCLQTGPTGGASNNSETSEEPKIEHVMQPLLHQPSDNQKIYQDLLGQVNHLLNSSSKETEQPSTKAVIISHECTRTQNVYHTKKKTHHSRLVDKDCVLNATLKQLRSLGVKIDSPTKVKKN", "assay": "pull-down; GST-RBM14 fragments retained on Glutathione sepharose beads, incubated with ~5 μg bacterially purified STIL[N] for 2 h at 4°C in lysis buffer; SDS-PAGE, SimplyBlue Safe stain", "conditions": "both partners purified", "data": [{"binder": "GST-RBM14[C] (domain or fragment, human, UniProt Q96PK6 151-669, looked up) QKKGPGLAVQSGDKTKKPGAGDTAFPGTGGFSATFDYQQAFGNSTGGFDGQARQPTPPFFGRDRSPLRRSPPRASYVAPLTAQPATYRAQPSVSLGAAYRAQPSASLGVGYRTQPMTAQAASYRAQPSVSLGAPYRGQLASPSSQSAAASSLGPYGGAQPSASALSSYGGQAAAASSLNSYGAQGSSLASYGNQPSSYGAQAASSYGVRAAASSYNTQGAASSLGSYGAQAASYGAQSAASSLAYGAQAASYNAQPSASYNAQSAPYAAQQAASYSSQPAAYVAQPATAAAYASQPAAYAAQATTPMAGSYGAQPVVQTQLNSYGAQASMGLSGSYGAQSAAAATGSYGAAAAYGAQPSATLAAPYRTQSSASLAASYAAQQHPQAAASYRGQPGNAYDGAGQPSAAYLSMSQGAVANANSTPPPYERTRLSPPRASYDDPYKKAVAMSKRYGSDRRLAELSDYRRLSESQLSFRRSPTKSSLDYRRLPDAHSDYARYSGSYNDYLRAAQMHSGYQRRM", "values": [{"measurement": "binding result", "result": "binds"}]}]}
